Data: patent US20150322129A1 (Sanofi, published 2015)
Numbered stars: 1 amine (or outer) side, 2 acyl side, 3 side chain; on linkers, the order of the positions; unused ones are H or OH. Square brackets hold non-standard residues; d marks the D form. Side chains are listed from the residue outwards. Ends that are not written are not given here. * marks the point of attachment. γGlu = O=C(O)[C@H](CCC(=O)[*:2])N[*:1]; Stearoyl = CCCCCCCCCCCCCCCCCC(=O)*; Palmitoyl = CCCCCCCCCCCCCCCC(=O)*; AEEA = NCCOCCOCC(=O)O; Aib = CC(C)(N)C(=O)O

T1: human GIP receptor (human, UniProt P48546 22-466)
T1 sequence (looked up): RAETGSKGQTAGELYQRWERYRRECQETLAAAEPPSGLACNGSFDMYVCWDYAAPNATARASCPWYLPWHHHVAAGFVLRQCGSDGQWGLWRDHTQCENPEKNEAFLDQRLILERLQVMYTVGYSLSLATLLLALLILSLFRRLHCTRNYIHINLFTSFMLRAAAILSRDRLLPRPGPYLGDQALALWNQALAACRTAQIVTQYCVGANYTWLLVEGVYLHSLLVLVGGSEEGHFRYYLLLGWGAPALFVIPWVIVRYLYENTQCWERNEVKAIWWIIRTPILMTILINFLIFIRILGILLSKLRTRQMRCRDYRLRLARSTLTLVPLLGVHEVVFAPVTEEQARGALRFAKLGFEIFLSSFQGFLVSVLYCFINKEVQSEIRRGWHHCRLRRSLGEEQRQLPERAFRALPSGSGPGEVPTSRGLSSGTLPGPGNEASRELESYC


Tests used:
Assay in all cases: cell-based or functional assay
[1] = target: human glucagon receptor (human, UniProt P47871 26-477)
[2] = target: human GLP-1 receptor (human, UniProt P43220 24-463)
[3] = target: T1, human GIP receptor

human glucagon receptor, sequence (P47871 26-477): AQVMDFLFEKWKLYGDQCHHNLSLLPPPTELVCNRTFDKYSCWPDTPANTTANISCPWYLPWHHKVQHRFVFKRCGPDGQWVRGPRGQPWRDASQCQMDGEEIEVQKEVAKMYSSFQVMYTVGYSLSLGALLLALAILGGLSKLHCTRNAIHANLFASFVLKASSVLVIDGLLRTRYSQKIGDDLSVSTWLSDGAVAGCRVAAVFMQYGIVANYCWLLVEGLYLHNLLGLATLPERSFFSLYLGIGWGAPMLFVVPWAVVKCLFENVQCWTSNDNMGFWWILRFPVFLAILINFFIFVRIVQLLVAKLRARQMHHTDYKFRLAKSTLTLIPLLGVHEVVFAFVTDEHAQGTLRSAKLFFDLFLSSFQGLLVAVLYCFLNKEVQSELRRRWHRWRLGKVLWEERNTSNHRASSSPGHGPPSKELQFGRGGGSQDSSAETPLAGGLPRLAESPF

Row | Binder | EC50 hGlucagon-R (cAMP formation) [1] [nM] | EC50 hGLP-1R (cAMP formation) [2] [nM] | EC50 hGIP-R (cAMP formation) [3] [nM]
1 | HSHGTFTSDLSKQK([γGlu-Stearoyl])EEEAVRLFIEWLKAGGPSSGAPPPS-NH2 [SEQ ID NO: 10] | 0.0069 | 0.0034 | 0.0711
2 | H[dS]QGTFTSDLSKQK([γGlu-Stearoyl])DEEAVRLFIEWLKAGGPSSGAPPPS-NH2 (N-terminus assumed; SMILES CCCCCCCCCCCCCCCCCC(=O)N[C@@H](CCC(=O)NCCCC[C@H](NC(=O)[C@H](CCC(N)=O)NC(=O)[C@H](CCCCN)NC(=O)[C@H](CO)NC(=O)[C@H](CC(C)C)NC(=O)[C@H](CC(=O)O)NC(=O)[C@H](CO)NC(=O)[C@@H](NC(=O)[C@H](Cc1ccccc1)NC(=O)[C@@H](NC(=O)CNC(=O)[C@H](CCC(N)=O)NC(=O)[C@@H](CO)NC(=O)[C@@H](N)Cc1c[nH]cn1)[C@@H](C)O)[C@@H](C)O)C(=O)N[C@@H](CC(=O)O)C(=O)N[C@@H](CCC(=O)O)C(=O)N[C@@H](CCC(=O)O)C(=O)N[C@@H](C)C(=O)N[C@H](C(=O)N[C@@H](CCCNC(=N)N)C(=O)N[C@@H](CC(C)C)C(=O)N[C@@H](Cc1ccccc1)C(=O)N[C@H](C(=O)N[C@@H](CCC(=O)O)C(=O)N[C@@H](Cc1c[nH]c2ccccc12)C(=O)N[C@@H](CC(C)C)C(=O)N[C@@H](CCCCN)C(=O)N[C@@H](C)C(=O)NCC(=O)NCC(=O)N1CCC[C@H]1C(=O)N[C@@H](CO)C(=O)N[C@@H](CO)C(=O)NCC(=O)N[C@@H](C)C(=O)N1CCC[C@H]1C(=O)N1CCC[C@H]1C(=O)N1CCC[C@H]1C(=O)N[C@@H](CO)C(N)=O)[C@@H](C)CC)C(C)C)C(=O)O) [SEQ ID NO: 19] | 0.129 | 0.0035 | 0.4
3 | H-H[Aib]HGTFTSDLSKQK([AEEA-AEEA-γGlu-Palmitoyl])EEEAVRLFIEWLKAGGPSSGAPPPS-NH2 [SEQ ID NO: 27] | 0.0234 | – | 0.0095
4 | H-H[dS]QGTFTSDLSKQK([γGlu-γGlu-Palmitoyl])DEEAVRLFIEWLKAGGPSSGAPPPS-NH2 (SMILES CCCCCCCCCCCCCCCC(=O)N[C@@H](CCC(=O)N[C@@H](CCC(=O)NCCCC[C@H](NC(=O)[C@H](CCC(N)=O)NC(=O)[C@H](CCCCN)NC(=O)[C@H](CO)NC(=O)[C@H](CC(C)C)NC(=O)[C@H](CC(=O)O)NC(=O)[C@H](CO)NC(=O)[C@@H](NC(=O)[C@H](Cc1ccccc1)NC(=O)[C@@H](NC(=O)CNC(=O)[C@H](CCC(N)=O)NC(=O)[C@@H](CO)NC(=O)[C@@H](N)Cc1c[nH]cn1)[C@@H](C)O)[C@@H](C)O)C(=O)N[C@@H](CC(=O)O)C(=O)N[C@@H](CCC(=O)O)C(=O)N[C@@H](CCC(=O)O)C(=O)N[C@@H](C)C(=O)N[C@H](C(=O)N[C@@H](CCCNC(=N)N)C(=O)N[C@@H](CC(C)C)C(=O)N[C@@H](Cc1ccccc1)C(=O)N[C@H](C(=O)N[C@@H](CCC(=O)O)C(=O)N[C@@H](Cc1c[nH]c2ccccc12)C(=O)N[C@@H](CC(C)C)C(=O)N[C@@H](CCCCN)C(=O)N[C@@H](C)C(=O)NCC(=O)NCC(=O)N1CCC[C@H]1C(=O)N[C@@H](CO)C(=O)N[C@@H](CO)C(=O)NCC(=O)N[C@@H](C)C(=O)N1CCC[C@H]1C(=O)N1CCC[C@H]1C(=O)N1CCC[C@H]1C(=O)N[C@@H](CO)C(N)=O)[C@@H](C)CC)C(C)C)C(=O)O)C(=O)O) [SEQ ID NO: 23] | 0.124 | 0.0012 | 0.35
5 | H-H[Aib]QGTFTSDLSKQK([γGlu-γGlu-Palmitoyl])EEEAVRLFIEWLKAGGPSSGAPPPS-NH2 (SMILES CCCCCCCCCCCCCCCC(=O)N[C@@H](CCC(=O)N[C@@H](CCC(=O)NCCCC[C@H](NC(=O)[C@H](CCC(N)=O)NC(=O)[C@H](CCCCN)NC(=O)[C@H](CO)NC(=O)[C@H](CC(C)C)NC(=O)[C@H](CC(=O)O)NC(=O)[C@H](CO)NC(=O)[C@@H](NC(=O)[C@H](Cc1ccccc1)NC(=O)[C@@H](NC(=O)CNC(=O)[C@H](CCC(N)=O)NC(=O)C(C)(C)NC(=O)[C@@H](N)Cc1c[nH]cn1)[C@@H](C)O)[C@@H](C)O)C(=O)N[C@@H](CCC(=O)O)C(=O)N[C@@H](CCC(=O)O)C(=O)N[C@@H](CCC(=O)O)C(=O)N[C@@H](C)C(=O)N[C@H](C(=O)N[C@@H](CCCNC(=N)N)C(=O)N[C@@H](CC(C)C)C(=O)N[C@@H](Cc1ccccc1)C(=O)N[C@H](C(=O)N[C@@H](CCC(=O)O)C(=O)N[C@@H](Cc1c[nH]c2ccccc12)C(=O)N[C@@H](CC(C)C)C(=O)N[C@@H](CCCCN)C(=O)N[C@@H](C)C(=O)NCC(=O)NCC(=O)N1CCC[C@H]1C(=O)N[C@@H](CO)C(=O)N[C@@H](CO)C(=O)NCC(=O)N[C@@H](C)C(=O)N1CCC[C@H]1C(=O)N1CCC[C@H]1C(=O)N1CCC[C@H]1C(=O)N[C@@H](CO)C(N)=O)[C@@H](C)CC)C(C)C)C(=O)O)C(=O)O) [SEQ ID NO: 24] | 0.261 | – | 0.0199
6 | H-H[Aib]HGTFTSDLSKQK([AEEA-AEEA-γGlu-Stearoyl])EEEAVRLFIEWLKAGGPSSGAPPPS-NH2 [SEQ ID NO: 28] | 0.0171 | 0.0038 | 0.017
7 | H-H[Aib]HGTFTSDLSKQK([AEEA-AEEA-AEEA-Stearoyl])EEEAVRLFIEWLKAGGPSSGAPPPS-NH2 [SEQ ID NO: 29] | 0.0179 | 0.0047 | 0.0476
8 | HXHGTFTSDLSKQKDEEAVRLFIEWLKAGGPSSGAPPPS (Aib at position 2; Lys 14 side-chain NH2 acylated with γE-x70 = (S)-4-Carboxy-4-octadecanoylamino-butyryl-; C-terminal amide (NH2)) [SEQ ID NO: 8] | 0.0245 | – | 0.0258
9 | H[Aib]QGTFTSDLSKQK([γGlu-Stearoyl])EEEAVRLFIEWLKAGGPSSGAPPPS-NH2 [SEQ ID NO: 6] | 0.309 | 0.0094 | 0.0607
10 | H[dS]HGTFTSDLSKQK([γGlu-Stearoyl])DEEAVRLFIEWLKAGGPSSGAPPPS-NH2 (N-terminus assumed; SMILES CCCCCCCCCCCCCCCCCC(=O)N[C@@H](CCC(=O)NCCCC[C@H](NC(=O)[C@H](CCC(N)=O)NC(=O)[C@H](CCCCN)NC(=O)[C@H](CO)NC(=O)[C@H](CC(C)C)NC(=O)[C@H](CC(=O)O)NC(=O)[C@H](CO)NC(=O)[C@@H](NC(=O)[C@H](Cc1ccccc1)NC(=O)[C@@H](NC(=O)CNC(=O)[C@H](Cc1c[nH]cn1)NC(=O)[C@@H](CO)NC(=O)[C@@H](N)Cc1c[nH]cn1)[C@@H](C)O)[C@@H](C)O)C(=O)N[C@@H](CC(=O)O)C(=O)N[C@@H](CCC(=O)O)C(=O)N[C@@H](CCC(=O)O)C(=O)N[C@@H](C)C(=O)N[C@H](C(=O)N[C@@H](CCCNC(=N)N)C(=O)N[C@@H](CC(C)C)C(=O)N[C@@H](Cc1ccccc1)C(=O)N[C@H](C(=O)N[C@@H](CCC(=O)O)C(=O)N[C@@H](Cc1c[nH]c2ccccc12)C(=O)N[C@@H](CC(C)C)C(=O)N[C@@H](CCCCN)C(=O)N[C@@H](C)C(=O)NCC(=O)NCC(=O)N1CCC[C@H]1C(=O)N[C@@H](CO)C(=O)N[C@@H](CO)C(=O)NCC(=O)N[C@@H](C)C(=O)N1CCC[C@H]1C(=O)N1CCC[C@H]1C(=O)N1CCC[C@H]1C(=O)N[C@@H](CO)C(N)=O)[C@@H](C)CC)C(C)C)C(=O)O) [SEQ ID NO: 15] | 0.064 | 0.0044 | 0.555
11 | H-H[dS]HGTFTSDLSKQK([γGlu-γGlu-Palmitoyl])DEEAVRLFIEWLKAGGPSSGAPPPS-NH2 (SMILES CCCCCCCCCCCCCCCC(=O)N[C@@H](CCC(=O)N[C@@H](CCC(=O)NCCCC[C@H](NC(=O)[C@H](CCC(N)=O)NC(=O)[C@H](CCCCN)NC(=O)[C@H](CO)NC(=O)[C@H](CC(C)C)NC(=O)[C@H](CC(=O)O)NC(=O)[C@H](CO)NC(=O)[C@@H](NC(=O)[C@H](Cc1ccccc1)NC(=O)[C@@H](NC(=O)CNC(=O)[C@H](Cc1c[nH]cn1)NC(=O)[C@@H](CO)NC(=O)[C@@H](N)Cc1c[nH]cn1)[C@@H](C)O)[C@@H](C)O)C(=O)N[C@@H](CC(=O)O)C(=O)N[C@@H](CCC(=O)O)C(=O)N[C@@H](CCC(=O)O)C(=O)N[C@@H](C)C(=O)N[C@H](C(=O)N[C@@H](CCCNC(=N)N)C(=O)N[C@@H](CC(C)C)C(=O)N[C@@H](Cc1ccccc1)C(=O)N[C@H](C(=O)N[C@@H](CCC(=O)O)C(=O)N[C@@H](Cc1c[nH]c2ccccc12)C(=O)N[C@@H](CC(C)C)C(=O)N[C@@H](CCCCN)C(=O)N[C@@H](C)C(=O)NCC(=O)NCC(=O)N1CCC[C@H]1C(=O)N[C@@H](CO)C(=O)N[C@@H](CO)C(=O)NCC(=O)N[C@@H](C)C(=O)N1CCC[C@H]1C(=O)N1CCC[C@H]1C(=O)N1CCC[C@H]1C(=O)N[C@@H](CO)C(N)=O)[C@@H](C)CC)C(C)C)C(=O)O)C(=O)O) [SEQ ID NO: 21] | 0.0859 | 0.0008 | 0.0994
